Results published in patent US20080248994A1 (GOVERNMENT OF THE UNITED STATES OF AMERICA AS REPRESENTED …, published 2008).

T1: hypophosphorylated pRb (endogenous, differentiated C2C12 myotubes, DM) (mouse, UniProt P13405 2-921, hypophosphorylated (sites not given))
T1 construct: Endogenous protein in extracts of cells kept in differentiation medium for 36 hr
T1 sequence (looked up): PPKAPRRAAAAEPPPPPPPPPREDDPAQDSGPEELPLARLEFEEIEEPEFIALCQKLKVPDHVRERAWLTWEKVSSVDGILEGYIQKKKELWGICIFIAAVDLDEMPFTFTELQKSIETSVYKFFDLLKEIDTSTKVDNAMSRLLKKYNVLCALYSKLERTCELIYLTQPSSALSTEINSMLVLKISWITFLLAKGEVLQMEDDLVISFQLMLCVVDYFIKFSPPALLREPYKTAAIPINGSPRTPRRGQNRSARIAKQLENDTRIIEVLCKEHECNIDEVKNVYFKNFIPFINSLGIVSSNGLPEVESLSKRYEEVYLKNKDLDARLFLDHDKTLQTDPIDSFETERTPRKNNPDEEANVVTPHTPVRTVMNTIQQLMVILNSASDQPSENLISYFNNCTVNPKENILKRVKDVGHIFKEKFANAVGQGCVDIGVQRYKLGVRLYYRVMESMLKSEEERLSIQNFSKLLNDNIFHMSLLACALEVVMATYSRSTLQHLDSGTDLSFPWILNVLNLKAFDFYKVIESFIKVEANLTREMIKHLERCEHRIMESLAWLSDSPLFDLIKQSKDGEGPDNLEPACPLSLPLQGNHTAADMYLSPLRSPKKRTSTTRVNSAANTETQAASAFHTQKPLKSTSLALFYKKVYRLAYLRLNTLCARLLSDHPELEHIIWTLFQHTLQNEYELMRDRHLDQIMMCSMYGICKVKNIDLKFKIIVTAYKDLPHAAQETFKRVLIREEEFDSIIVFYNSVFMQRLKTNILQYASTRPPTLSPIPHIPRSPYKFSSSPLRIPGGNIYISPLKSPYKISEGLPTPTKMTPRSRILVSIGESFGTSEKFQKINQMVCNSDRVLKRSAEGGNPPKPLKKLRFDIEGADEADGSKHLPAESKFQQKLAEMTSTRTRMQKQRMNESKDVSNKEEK

T2: hyperphosphorylated pRb (endogenous, proliferating C2C12 myoblasts, GM) (mouse, UniProt P13405 2-921, hyperphosphorylated (sites not given))
T2 construct: Endogenous protein in extracts of cells kept in growth medium
T2 sequence (looked up): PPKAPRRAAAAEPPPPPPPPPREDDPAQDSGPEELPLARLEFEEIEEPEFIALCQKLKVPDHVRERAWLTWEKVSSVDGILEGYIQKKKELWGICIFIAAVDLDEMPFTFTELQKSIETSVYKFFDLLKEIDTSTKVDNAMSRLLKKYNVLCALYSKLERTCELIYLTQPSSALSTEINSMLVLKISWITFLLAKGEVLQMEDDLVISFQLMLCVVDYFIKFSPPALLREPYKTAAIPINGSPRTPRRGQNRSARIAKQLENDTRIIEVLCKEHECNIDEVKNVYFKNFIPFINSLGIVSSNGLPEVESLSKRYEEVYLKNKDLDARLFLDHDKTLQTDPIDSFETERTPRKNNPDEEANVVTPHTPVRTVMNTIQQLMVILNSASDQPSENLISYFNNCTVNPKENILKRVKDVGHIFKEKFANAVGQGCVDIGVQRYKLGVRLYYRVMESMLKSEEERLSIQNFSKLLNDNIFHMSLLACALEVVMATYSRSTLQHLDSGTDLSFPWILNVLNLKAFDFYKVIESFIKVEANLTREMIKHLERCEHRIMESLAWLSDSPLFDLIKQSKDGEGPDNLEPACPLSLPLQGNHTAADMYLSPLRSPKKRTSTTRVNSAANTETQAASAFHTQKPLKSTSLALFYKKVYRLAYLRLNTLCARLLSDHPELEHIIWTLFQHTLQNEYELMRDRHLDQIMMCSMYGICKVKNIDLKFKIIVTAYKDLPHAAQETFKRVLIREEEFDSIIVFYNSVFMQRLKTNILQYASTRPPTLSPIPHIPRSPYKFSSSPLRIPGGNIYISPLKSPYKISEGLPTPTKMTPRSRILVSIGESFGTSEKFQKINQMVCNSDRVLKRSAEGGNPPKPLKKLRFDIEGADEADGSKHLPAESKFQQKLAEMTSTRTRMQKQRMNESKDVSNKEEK

T3: GST-pRb wt (UniProt P06400 379-928, limits assumed)
T3 construct: Expressed in bacteria; the whole protein is named here; also called GST-Rb (WT); GST-RB (WT); not shown: GST tag
T3 sequence (looked up): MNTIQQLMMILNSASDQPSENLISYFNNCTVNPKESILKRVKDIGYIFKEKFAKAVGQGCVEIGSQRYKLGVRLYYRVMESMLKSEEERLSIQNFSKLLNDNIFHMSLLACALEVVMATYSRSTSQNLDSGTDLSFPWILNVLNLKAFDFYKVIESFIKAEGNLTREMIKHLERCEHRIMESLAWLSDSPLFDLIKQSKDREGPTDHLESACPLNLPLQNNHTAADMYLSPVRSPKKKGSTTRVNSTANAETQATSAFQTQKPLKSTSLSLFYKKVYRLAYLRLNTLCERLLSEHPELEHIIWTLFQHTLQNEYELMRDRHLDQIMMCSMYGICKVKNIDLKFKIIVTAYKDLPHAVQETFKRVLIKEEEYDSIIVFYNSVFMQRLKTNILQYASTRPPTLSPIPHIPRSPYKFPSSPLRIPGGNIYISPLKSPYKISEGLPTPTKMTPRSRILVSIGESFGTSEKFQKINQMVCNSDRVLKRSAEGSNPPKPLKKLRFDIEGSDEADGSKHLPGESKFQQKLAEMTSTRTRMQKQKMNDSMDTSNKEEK


Tests used:
[1] = target: T1, hypophosphorylated pRb (endogenous, …); test: co-immunoprecipitation from C2C12 myotube extracts, Western blot
[2] = target: T2, hyperphosphorylated pRb (endogenous, …); test: co-immunoprecipitation from C2C12 myoblast extracts, Western blot
[3] = target: T3, GST-pRb wt; test: GST pull-down from extracts of transfected pRb-/- 3T3 cells, Western blot (data not shown)
Experimental: The association with MyoD was monitored at different stages of myogenic conversion (GM and DM for 36 hours) by Western blot using anti-MyoD antibodies. In FIG. 9B, pRb−/−p53±double knock out derived 3T3 cells were transfected with Flag-HDAC1 and myc-MyoD. Nuclear extracts were prepared and subsequently incubated with increasing amounts of either GST-pRbwt or GST-pRbN757F. […] The HDAC1 present in the supernatant of the GST pull-down was immunoprecipitated with anti-Flag conjugated beads, and the associated MyoD was detected by Western blot by using anti-myc antibodies. In FIG. 9C (upper panel), a graph illustrates the ability to activate MCK-luc reporter by MyoD transiently expressed in pRb−/−p53±3T3 fibroblasts, evaluated with or without the co-expression of pRb wt or pRb N757F. In the lower panel of […], levels of endogenous MHC, p21, myogenin, tubulin, and ectopically produced pRb were evaluated by Western blot in pRb−/−p53±3T3 fibroblasts after transient expression of MyoD alone or in conjunction with either pRb wt or pRb N757F. FIG. 9D is a graph illustrating the ability to activate the MCK-luc reporter by MyoD and MEF2C alone, or in combination with E12, in pRb−/−p53±double knock out derived 3T3 cells was evaluated with or without the co-expression of pRb wt or pRb N757F. […] Transcriptional activation was measured by luciferase assay. […]

Row | binding result [1] | binding result [2] | binding result [3] | Binder
1 | no binding | no binding |  | MyoD (endogenous, in extracts of C2C12 cells; also endogenous MyoD of MD3 and CC42 cells) (other, mouse, UniProt P10085 1-318, looked up, Transcription factor (bHLH)) MELLSPPLRDIDLTGPDGSLCSFETADDFYDDPCFDSPDLRFFEDLDPRLVHMGALLKPEEHAHFPTAVHPGPGAREDEHVRAPSGHHQAGRCLLWACKACKRKTTNADRRKAATMRERRRLSKVNEAFETLKRCTSSNPNQRLPKVEILRNAIRYIEGLQALLRDQDAAPPGAAAFYAPGPLPPGRGSEHYSGDSDASSPRSNCSDGMMDYSGPPSGPRRQNGYDTAYYSEAARESRPGKSAAVSSLDCLSSIVERISTDSPAAPALLLADAPPESPPGPPEGASLSDTEQGTQTPSPDAAPQCPAGSNPNAIYQVL
2 |  |  | no binding | myc-MyoD (expressed from a transfected vector in pRb-/- 3T3 cells) (other, UniProt P10085 1-318, looked up, also called myc-tagged MyoD; not shown: myc tag) MELLSPPLRDIDLTGPDGSLCSFETADDFYDDPCFDSPDLRFFEDLDPRLVHMGALLKPEEHAHFPTAVHPGPGAREDEHVRAPSGHHQAGRCLLWACKACKRKTTNADRRKAATMRERRRLSKVNEAFETLKRCTSSNPNQRLPKVEILRNAIRYIEGLQALLRDQDAAPPGAAAFYAPGPLPPGRGSEHYSGDSDASSPRSNCSDGMMDYSGPPSGPRRQNGYDTAYYSEAARESRPGKSAAVSSLDCLSSIVERISTDSPAAPALLLADAPPESPPGPPEGASLSDTEQGTQTPSPDAAPQCPAGSNPNAIYQVL
